B1: Hairpin Ribozyme (parent)
chain: GUCCUCUUUCACGUGCGCGUGAAAGAGAGAAGUGAACCAGAGAAACACACGUUGUGGUAUAUUACCUGGUA

Variants of B1 are the subject of this data set. As to the kind of experiment: self-cleavage, relative activity (ratio to wild type); higher = more cleavage; co-transcriptional.
In the case of GUCCUCUUUCACGUGCGCGCGAAAGAGAGGAGUGAACCAGAGAAACACACGUUGUGGUAUAUUACCUGGUA [U20C A30G], the self-cleavage is 0.112.

In the case of GUCCUCUUUCACGUGCGCGAGACAGAGAGAAGUGAACCAGAGAAACACACGUUGUGGUAUAUUACCUGGUA [U20A A23C], the self-cleavage was 0.734.

For the variant GUCCUCUUUCACGUGCGCGAGAAAGAGAGAAGUGAACCAGAGAAUCACACGUUGUGGUAUAUUACCUGGUA [U20A A45U], the self-cleavage is 0.172.

Consider GUCCUCUUUCACGUGCGCGAGAAAGAGAGAAGUGUACCAGAGAAACACACGUUGUGGUAUAUUACCUGGUA [U20A A35U], for which the self-cleavage was 0.872.

As for GUCCUCUUUCACGUGCGCGAGAAAGAGAGAAGUGAACCAGAGAAACACACGUUGUGGUAUAUUACUUGGUA [U20A C66U], the self-cleavage was 0.487.

For the variant GUCCUCUUUCACGUGCGCGAGAAAGAGAGAAGUGAACCAGAGAAACACACGUUGUGGUAUAUUACGUGGUA [U20A C66G], the self-cleavage was 0.0899.

On to GUCCUCUUUCACGUGCGCGAGAAAGAGAGAAGUGAACCAGAGAAACACACGUUGUUGUAUAUUACCUGGUA [U20A G56U], for which the self-cleavage came to 0.114.

Consider GUCCUCUUUCACGUGCGCGAGAAAGAGAGAAGUGAACCAGAUAAACACACGUUGUGGUAUAUUACCUGGUA [U20A G42U], for which the self-cleavage was found to be 0.346.

With GUCCUCUUUCACGUGCGCGAGAAAGAGAGAAGUGAACCAGAAAAACACACGUUGUGGUAUAUUACCUGGUA [U20A G42A], the self-cleavage is 0.226.

Take GUCCUCUUUCACGUGCGCGAGAAAGAGAGAAGUGAACCAGAGAAAAACACGUUGUGGUAUAUUACCUGGUA [U20A C46A]: the self-cleavage amounted to 0.265.

Regarding GUCCUCUUUCACGUGCGCGAGAAAGAGAGAAGUGAACCAGAGAAAGACACGUUGUGGUAUAUUACCUGGUA [U20A C46G], the self-cleavage amounted to 0.162.

In the case of GUCCUCUUUCACGUGCGCGAGAAAGAGAGUAGUGAACCAGAGAAACACACGUUGUGGUAUAUUACCUGGUA [U20A A30U], the self-cleavage was determined as 0.145.

As for GUCCUCUUUCACGUGCGCGAGAAAGAGAGAAGUGACCCAGAGAAACACACGUUGUGGUAUAUUACCUGGUA [U20A A36C], the self-cleavage was 0.412.

For the variant GUCCUCUUUCACGUGCGCUUGAAAGAGAGAAGUGAACCAGAGAAACACACGUUGUGGUAUACUACCUGGUA [G19U U62C], the self-cleavage worked out at 0.256.

As for GUCCUCUUUCACGUGCGCGAGAAAGAGGGAAGUGAACCAGAGAAACACACGUUGUGGUAUAUUACCUGGUA [U20A A28G], the self-cleavage was found to be 0.833.

For the variant GUCCUCUUUCACGUGCGCGAGAAAGAGCGAAGUGAACCAGAGAAACACACGUUGUGGUAUAUUACCUGGUA [U20A A28C], the self-cleavage came out at 0.482.

Regarding GUCCUCUUUCACGUGCGCGAGAAAGAGAGAAGUGAACCAGAGAAACACACGUUGUGGUCUAUUACCUGGUA [U20A A59C], the self-cleavage worked out at 0.0988.

As for GUCCUCUUUCACGUGCGCGAGAAAGAGAGAAGUGAACCAGAGAAACACACGUUGUGGUGUAUUACCUGGUA [U20A A59G], the self-cleavage came out at 0.182.

Consider GUCCUCUUUCACGUGCGCGAGAAAGAGAGAAUUGAACCAGAGAAACACACGUUGUGGUAUAUUACCUGGUA [U20A G32U], for which the self-cleavage worked out at 0.0356.

For GUCCUCUUUCACGUGCGCGAGAAAGAGAGAACUGAACCAGAGAAACACACGUUGUGGUAUAUUACCUGGUA [U20A G32C], the self-cleavage is 0.174.

For GUCCUCUUUCACGUGCGCGAGAAAGAGAGAAGUGAACCAGAGAAACACACAUUGUGGUAUAUUACCUGGUA [U20A G51A], the self-cleavage is 0.765.

As for GUCCUCUUUCACGUGCGCGAGAAAGAGAGAAGUGAACCAGAGAAACACACUUUGUGGUAUAUUACCUGGUA [U20A G51U], the self-cleavage came out at 0.833.

As to GUCCUCUUUCACGUGCGCGAGAAACAGAGAAGUGAACCAGAGAAACACACGUUGUGGUAUAUUACCUGGUA [U20A G25C], the self-cleavage was 0.447.

Regarding GUCCUCUUUCACGUGCGCGAGAAAGAGAGAAGUGAACCAGAGAAACACACGUUGCGGUAUAUUACCUGGUA [U20A U55C], the self-cleavage amounted to 0.258.

With GUCCUCUUUCACGUGCGCGAGAAAGAGAGAAGUGAACCAGAGAAACACACGUUGAGGUAUAUUACCUGGUA [U20A U55A], the self-cleavage was determined as 0.252.

For GUCCUCUUUCACGUGCGCGAGAAAGAGAGAAGUGAACCAGAGAAACACACGUUGGGGUAUAUUACCUGGUA [U20A U55G], the self-cleavage was 0.256.

In the case of GUCCUCUUUCACGUGCGCGAGAAAGAGAGAAGUGAACCAGAGAAACACACGUUGUGGUAUAUUACCUCGUA [U20A G68C], the self-cleavage amounted to 0.112.

With GUCCUCUUUCACGUGCGCGAGAAAGAGAGAAGUGAACCAGAGAAACACACGUUGUGGUAUAUGACCUGGUA [U20A U63G], the self-cleavage amounted to 0.263.

Turning to GUCCUCUUUCACGUGCGCGAGAAAGAGAGAAGUGAACCAGAGAAACACACGUUGUGGUAUAUAACCUGGUA [U20A U63A], the self-cleavage came out at 0.261.

Turning to GUCCUCUUUCACGUGCGCGAGAAAGAGAGAAGUGAACCAGAGAAACAUACGUUGUGGUAUAUUACCUGGUA [U20A C48U], the self-cleavage was determined as 0.137.

With GUCCUCUUUCACGUGCGCGCGAAAGUGAGAAGUGAACCAGAGAAACACACGUUGUGGUAUAUUACCUGGUA [U20C A26U], the self-cleavage was found to be 0.692.

Regarding GUCCUCUUUCACGUGCGCGAGAAAGAGAGAAGUUAACCAGAGAAACACACGUUGUGGUAUAUUACCUGGUA [U20A G34U], the self-cleavage is 1.29.

As for GUCCUCUUUCACGUGCGCGAGAAAGAGAGAAGUGAACCAGAGACACACACGUUGUGGUAUAUUACCUGGUA [U20A A44C], the self-cleavage stood at 0.202.

GUCCUCUUUCACGUGCGCGAGAAAGAGAGAAGUGAACCAGAGAAACACACGUCGUGGUAUAUUACCUGGUA [U20A U53C]: the self-cleavage came to 0.682.

On to GUCCUCUUUCACGUGCGCGAGAAAGAGAGAAGUGAACCAGAGAAACACACGUGGUGGUAUAUUACCUGGUA [U20A U53G], for which the self-cleavage was determined as 0.673.

Regarding GUCCUCUUUCACGUGCGCUUGAAAGAGAGAAGUGAACCAGAGAAACACACGUUGUGGUAUAUUACCGGGUA [G19U U67G], the self-cleavage is 0.272.

As to GUCCUCUUUCACGUGCGCUUGAAAGAGAGAAGUGAACCAGAGAAACACACGUUGUGGUAUAUUACCAGGUA [G19U U67A], the self-cleavage was 0.131.

Regarding GUCCUCUUUCACGUGCGCGAGAAAGAGAGAAGUGAACCAGAGAAACACACGUUGUGGUAUAUUCCCUGGUA [U20A A64C], the self-cleavage is 0.163.

The values above are taken from the RNAGym collection of RNA variant scans (doi:10.7554/elife.80360).
